Measured values: US20190233512A1 (SUTRO BIOPHARMA, published 2019)

Tests used:
[1] = target: T1, Murine folate receptor alpha (mouse, UniProt P35846 25-232); experiment: FACS, CHO-mFOLR1 cells
T1 construct: Stably expressed on CHO cells (CHO-mFOLR1); also called mouse FOLR1; CHO-mFOLR1

[2] = target: T2, Cynomolgus folate receptor alpha (cynomolgus monkey, UniProt P15328 25-234 (human entry)); experiment: FACS, CHO-cFOLR1 cells
T2 construct: Stably expressed on CHO cells (CHO-cFOLR1); also called cynomolgus FOLR1; CHO-cFOLR1
T2 sequence (P15328 other isoform, or with tags, fused parts or gaps limits assumed): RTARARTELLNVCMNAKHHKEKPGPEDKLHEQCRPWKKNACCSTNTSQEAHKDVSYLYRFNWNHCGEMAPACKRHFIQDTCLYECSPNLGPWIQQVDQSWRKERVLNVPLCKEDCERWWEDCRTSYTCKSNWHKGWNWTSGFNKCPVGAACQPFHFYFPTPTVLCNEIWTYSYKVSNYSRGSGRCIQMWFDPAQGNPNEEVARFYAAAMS

[3] = target: T3, Human folate receptor alpha (hFOLR1) (human, UniProt P15328 25-234); experiment: FACS, CHO-hFOLR1 cells
T3 construct: Stably expressed on CHO cells (CHO-hFOLR1) for flow cytometry; endogenous on FOLR1-positive KB and Igrov1 cells in the killing assay; also called human FOLR1; FolRα
T3 sequence (P15328 25-234 limits assumed): as the sequence (P15328 other isoform, or with tags, fused parts or gaps limits assumed) above, with T2I, R4W, K37R, R117Q, P146A, Y171H counted along it
Protocol: CHO cells were transfected to stably express human (CHO-hFOLR1), cynomolgus (CHO-cFOLR1), or mouse (CHO-mFOLR1) target molecule FOLR1 on the cell surface. Parental CHO cells were used as a negative control to determine background binding levels. Parental CHO and stably transfected CHO-hFOLR1, CHO-cFOLR1, and CHO-mFOLR1 cells were cultured in Ham's F-12: high glucose DMEM (50:50) (Corning, Cellgro-Mediatech) supplemented with 10% heat-inactivated fetal bovine serum (Corning, Cellgro-Mediatech), 1% Penicillin/Streptomycin (Corning, Cellgro-Mediatech) and 2 mmol/L-glutamax (Life Technology).
A mixture of fluoresecent-labeled parental CHO cells and unlabeled CHO-hFOLRlcells were prepared as follows. Parental CHO cells were washed twice in PBS and incubated in PBS containing with 1 nM CellTrace™ Oregon Green488® (Life Technologies) at 37° C. for 30 minutes. Labeled parental CHO cells were then washed 2× with Ham's F-12 media and 2× with FACS buffer (PBS with 1% bovine serum albumin). Unlabeled CHO-hFOLR1 cells were similarly washed and prepared. Labeled parental CHO and unlabeled CHO-hFOLR1 cells were combined at 1:1 ratio and seeded at 50 μL per well (200,000 cells per well) in 96 well polypropylene plates. Cells were mixed with 50 μL of test antibodies (i.e., anti-FOLR1 variants) serially diluted in FACS buffer and incubated on ice for 60 mins. Cells were washed with FACS buffer and incubated on ice for 60 mins with 100 μL FACS buffer containing 2.5 μg/mL R-Phycoerythrin-conjugated goat anti-Human IgG (Jackson ImmunoResearch Laboratories, West Grove, Pa.). Cells were washed twice with FACS buffer, fixed in 2% paraformaldehyde in PBS (Santa Cruz Biotechnology; Dallas, Tex.) for 10 mins on ice in the dark, and analyzed using the BD LSR II Flow Cytometer (BD Biosciences; San Jose, Calif.). Data were analyzed using FlowJo® software (FlowJo, LLC; Ashland, Oreg.) to determine mean fluorescence intensities. Binding constants were calculated using the statistical software, GraphPad Prism (GraphPad Software; La Jolla, Calif.) using the nonlinear regression equation, one site-specific binding with Hill slope. Secondary antibody alone was used as a control, in addition to measuring non-specific antibody binding to CHO parental cells.

T1 sequence (P35846 25-232 limits assumed): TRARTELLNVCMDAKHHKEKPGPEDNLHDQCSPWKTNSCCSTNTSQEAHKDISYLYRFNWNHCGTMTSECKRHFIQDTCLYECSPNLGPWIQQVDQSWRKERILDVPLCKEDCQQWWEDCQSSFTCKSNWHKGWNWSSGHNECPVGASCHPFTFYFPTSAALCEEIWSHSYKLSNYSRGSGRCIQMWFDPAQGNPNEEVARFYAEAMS

| Binder | Bmax [1] [MFI] | Bmax [2] [MFI] | Bmax [3] [MFI] |
| --- | --- | --- | --- |
| SRP1848-F04 (antibody, V domains shown, VH/VL only; Fc-bearing IgG format with trastuzumab LC, HIS/FLAG-tagged, cell-free expressed; constant regions not tied; also called Antibody 39) VH: EVQLVESGGGLVQPGGSLRLSCAASGFNISNYSIHWVRQAPGKGLEWVGEIYPIDGITDYADSVKGRFTISADTSKNTAYLQMNSLRAEDTAVYYCARGSWFWRSGYGYYLDYWGQGTLVTVSS VL: not shown | 2740 | 26400 | 26900 |
| SRP1848-A08 (antibody, V domains shown, VH/VL only; Fc-bearing IgG format with trastuzumab LC, HIS/FLAG-tagged, cell-free expressed; constant regions not tied; also called Antibody 6) VH: EVQLVESGGGLVQPGGSLRLSCAASGSNIRKHSIHWVRQAPGKGLEWVGSIYPNDGTTDYADSVKGRFTISADTSKNTAYLQMNSLRAEDTAVYYCARGSWFWRAGYGYYLDYWGQGTLVTVSS VL: not shown | 3200 | 26200 | 28600 |
| SRP1848-B01 (antibody, V domains shown, VH/VL only; Fc-bearing IgG format with trastuzumab LC, HIS/FLAG-tagged, cell-free expressed; constant regions not tied; also called Antibody 9) VH: EVQLVESGGGLVQPGGSLRLSCAASGFNIRNYSIHWVRQAPGKGLEWVGEIYPVDGITDYADSVKGRFTISADTSKNTAYLQMNSLRAEDTAVYYCARGFWSWPSGYSYFLDYWGQGTLVTVSS VL: not shown | 3400 | 23900 | 26600 |
| SRP1848-A10 (antibody, V domains shown, VH/VL only; Fc-bearing IgG format with trastuzumab LC, HIS/FLAG-tagged, cell-free expressed; constant regions not tied; also called Antibody 8) VH: EVQLVESGGGLVQPGGSLRLSCAASGFNIRKYSIHWARQAPGKGLEWVGDIFPIDDITDYADSVKGRFTISADTSKNTAYLQMNSLRAEDTAVYYCARGSWSWPSGHSYYLDYWGQGTLVTVSS VL: not shown | 10200 | 14800 | 27100 |
| SRP1848-B03 (antibody, V domains shown, VH/VL only; Fc-bearing IgG format with trastuzumab LC, HIS/FLAG-tagged, cell-free expressed; constant regions not tied; also called Antibody 10) VH: EVQLVESGGGLVQPGGSLRLSCAASGFNISMKYIHWVRQAPGKGLEWVGGITPIDGMTDYADSVKGRFTISADTSKNTAYLQMNSLRAEDTAVYYCARGSWSWPSGYSYYLDYWGQGTLVTVSS VL: not shown | 2720 | 17200 | 26300 |
| SRP1848-A04 (antibody, V domains shown, VH/VL only; Fc-bearing IgG format with trastuzumab LC, HIS/FLAG-tagged, cell-free expressed; constant regions not tied; also called Antibody 3) VH: EVQLVESGGGLVQPGGSLRLSCAASGFNIDQSSIHWVRQAPGKGLEWVGVIYPVDGTTDYADSVKGRFTISADTSKNTAYLQMNSLRAEDTAVYYCARGAWSWRSGYGYYIDYWGQGTLVTVSS VL: not shown | 3890 | 23100 | 26800 |
| SRP1848-A07 (antibody, V domains shown, VH/VL only; Fc-bearing IgG format with trastuzumab LC, HIS/FLAG-tagged, cell-free expressed; constant regions not tied; also called Antibody 5) VH: EVQLVESGGGLVQPGGSLRLSCAASGFNIGYHSIHWVRQAPGKGLEWVGEIFPVDGTTDYADSVKGRFTISADTSKNTAYLHMNSLRAEDTAVYYCARGFWAWRSGYGYYLDYWGQGTLVTVSS VL: not shown | 9650 | 23600 | 29200 |
| SRP1848-A09 (antibody, V domains shown, VH/VL only; Fc-bearing IgG format with trastuzumab LC, HIS/FLAG-tagged, cell-free expressed; constant regions not tied; also called Antibody 7) VH: EVQLVESGGGLVQPGGSLRLSCAASGFNIRKQSIHWVRQAPGKGLEWVGSIFPNDGTTDYADSVKGRFTISADTSKNTAYLQVNSLRAEDTAVYYCARGSWFWRSGYGYFLEYWGQGTLVTVSS VL: not shown | 7990 | 20200 | 28900 |
| SRP1848-A06 (antibody, V domains shown, VH/VL only; Fc-bearing IgG format with trastuzumab LC, HIS/FLAG-tagged, cell-free expressed; constant regions not tied; also called Antibody 4) VH: EVQLVESGGGLVQPGGSLRLSCAASGFNIGNSYIHWVRQAPGKGLEWVGGITPIDGNTDYADSVKGRFTISADTSKNTAYLQMNSLRAEDTAVYYCARGAWSWRSGYGYYIDYWGQGTLVTVSS VL: not shown | 2770 | 20200 | 24500 |

More lines, now with the values ahead:

| Bmax [1] [MFI] | Bmax [2] [MFI] | Bmax [3] [MFI] | Binder |
| --- | --- | --- | --- |
|  | 24300 | 25700 | SRP1848-D07 (antibody, V domains shown, VH/VL only; Fc-bearing IgG format with trastuzumab LC, HIS/FLAG-tagged, cell-free expressed; constant regions not tied; also called Antibody 28) VH: EVQLVESGGGLVQPGGSLRLSCAASGFNISKYYIHWVRQAPGKGLEWVGGISPNDGYTDYADSVKGRFAISADTSKNTAYLQMNSLRAEDTAVYYCARGFWAWRSGYGYYLDYWGQGTLVTVSS VL: not shown |
|  | 21300 | 25000 | SRP1848-D09 (antibody, V domains shown, VH/VL only; Fc-bearing IgG format with trastuzumab LC, HIS/FLAG-tagged, cell-free expressed; constant regions not tied; also called Antibody 29) VH: EVQLVESGGGLVQPGGSLRLSCAASGFNISNYYIHWVRQAPGKGLEWVGGISPNDGYTDYADSVKGRFTISADTSKNTAYLQMNSLRAEDTAVYYCARGSWSWRHGYGYYLDYWGQGTLVTVSS VL: not shown |
|  | 25700 | 29300 | SRP1848-D04 (antibody, V domains shown, VH/VL only; Fc-bearing IgG format with trastuzumab LC, HIS/FLAG-tagged, cell-free expressed; constant regions not tied; also called Antibody 26) VH: EVQLVESGGGLVQPGGSLRLSCAASGFNISHYSIHWVRQAPGKGLEWVGEIYPRDGITDYADSVKGRFTISADTSKNTAYLQMNSLSAEDTAVYYCARGYWFWRSGYGYYLDYWGQGTLVTVSS VL: not shown |
|  | 26500 | 25600 | SRP1848-F06 (antibody, V domains shown, VH/VL only; Fc-bearing IgG format with trastuzumab LC, HIS/FLAG-tagged, cell-free expressed; constant regions not tied; also called Antibody 41) VH: EVQLVESGGGLVQPGGSLRLSCAASGFNISLSYIHWVRQAPGKGLEWVGGISPIDGNTDYADSVKGRFTISADTSKNTAYLQMNSLRAEDTAVYYCARGFWAWRSGYGYYLDYWGQGTLVTVSS VL: not shown |
| 2190 | 27800 | 27800 | SRP1848-B04 (antibody, V domains shown, VH/VL only; Fc-bearing IgG format with trastuzumab LC, HIS/FLAG-tagged, cell-free expressed; constant regions not tied; also called Antibody 11) VH: EVQLVESGGGLVQPGGSLRLSCAASSFNISNHSIHWVRQAPGKGLEWVGEIYPVDGITDYADSVKGRFTISADTSKNTAYLQMNSLRAEDTAVYYCARGRYSWRAGYSYYLDYWGQGTLVTVSS VL: not shown |
| 1420 | 25200 | 25200 | SRP1848-B09 (antibody, V domains shown, VH/VL only; Fc-bearing IgG format with trastuzumab LC, HIS/FLAG-tagged, cell-free expressed; constant regions not tied; also called Antibody 15) VH: EVQLVESGGGLVQPGGSLRLSCAAGGFNITNYYIHWVRQAPGKGLEWVGGITPVDGYTDYADRVKGRFTISADTSKNTAYLQMNSLRAEDTAVYYCARGAWSWRSGYGYYMDYWGQGTLVTVSS VL: not shown |
|  | 28200 | 27300 | SRP1848-E05 (antibody, V domains shown, VH/VL only; Fc-bearing IgG format with trastuzumab LC, HIS/FLAG-tagged, cell-free expressed; constant regions not tied; also called Antibody 34) VH: EVQLVESGGGLVQPGGSLRVSCAASGFNIGVYYIHWVRQAPGKGLEWVGGITPNDGYTDYADSVKGRFTISADTSKNTAYLQMNSLRAEDTAVYYCARGFWAWRSGYGYYLDYWGQGTLVTVSS VL: not shown |
|  | 22400 | 26400 | SRP1848-E01 (antibody, V domains shown, VH/VL only; Fc-bearing IgG format with trastuzumab LC, HIS/FLAG-tagged, cell-free expressed; constant regions not tied; also called Antibody 31) VH: EVQLVESGGGLVQPGGSLRLSCAASGFNITNKYIHWVRQAPGKGLEWVGGITPFDGFTDYADSVKGRFTISADTSKNTAYLQMNSLRAEDTAVYYCARGSWSWPAGYGYYQDYWGQGTLVTVSS VL: not shown |
|  | 21900 | 24500 | SRP1848-B05 (antibody, V domains shown, VH/VL only; Fc-bearing IgG format with trastuzumab LC, HIS/FLAG-tagged, cell-free expressed; constant regions not tied; also called Antibody 12) VH: EVQLVESGGGLVQPGGSLRLSCAASGFNISNYYIHWVRQAPGKGLEWVGGISPIDGYTDYADSMKGRFTISADTSKNTAYLQMSSLRAEDTAVYYCARGSWFWQSGYGYYLDYWGQGTLVTVSS VL: not shown |
| 2460 | 21300 | 28200 | SRP1848-B10 (antibody, V domains shown, VH/VL only; Fc-bearing IgG format with trastuzumab LC, HIS/FLAG-tagged, cell-free expressed; constant regions not tied; also called Antibody 16) VH: EVQLVESGGGLVQPGGSLRLSCAASGFNTTTKSIHWVRQAPGKGLEWVGEIYPRDGITDYADSVKGRFTISADTSKNTAYLQMNSLRAEDTAVYYCARGGWHWRSGYSYYLDYWGQGTLVTVSS VL: not shown |
|  | 25500 | 25600 | SRP1848-B07 (antibody, V domains shown, VH/VL only; Fc-bearing IgG format with trastuzumab LC, HIS/FLAG-tagged, cell-free expressed; constant regions not tied; also called Antibody 14) VH: EVQLVESGGGLVQPGGSLRLSCAASGFNISRFYIHWVRQAPGKGLEWVGGISPYDGFTDYADSVKGRFTISADTSKNTAYLQMNSLRAEDTAVYYCARGSWSWPAGYGYYQDYWGQGTLVTVSS VL: not shown |
|  | 21000 | 26500 | SRP1848-F08 (antibody, V domains shown, VH/VL only; Fc-bearing IgG format with trastuzumab LC, HIS/FLAG-tagged, cell-free expressed; constant regions not tied; also called Antibody 43) VH: EVQLVESGGGLVQPGGSLRLSCAAGGFNISNHSIHWVRQAPGKGVEWVGEIYPVDGITDYADSVKGRFTISADTSKNTAYLRMNSLRAEDTAVYYCARGSWYWQSGYSYYLDYWGQGTLVTVSS VL: not shown |
|  | 26800 | 25100 | SRP1848-B06 (antibody, V domains shown, VH/VL only; Fc-bearing IgG format with trastuzumab LC, HIS/FLAG-tagged, cell-free expressed; constant regions not tied; also called Antibody 13) VH: EVQLVESGGGLVQPGGSLRLSCAASGFNISNYYIHWVRQAPGKGLEWVGGITPIDGYTDYADSVKGRFTISADTSKNTAYLQMNSLRAEDTAVYYCARGFWSWPSGYGYYQDYWGQGTLVTVSS VL: not shown |
